In patent publication US20230129812A1, “COMPOSITIONS AND METHODS FOR TREATING PULMONARY HYPERTENSION” (Acceleron Pharma Inc., priority 2020, published 2023):

Tests used:
GDF11 [1] = target: T1, GDF11 (Homo sapiens, UniProt O95390); assay: Biacore ligand binding profile, ALK4-Fc:ActRIIB-Fc heterodimer vs homodimers, anti-Fc capture (Example 13, Table 13); conditions: ligand GDF11, Table 13
T1 sequence (O95390 299-407): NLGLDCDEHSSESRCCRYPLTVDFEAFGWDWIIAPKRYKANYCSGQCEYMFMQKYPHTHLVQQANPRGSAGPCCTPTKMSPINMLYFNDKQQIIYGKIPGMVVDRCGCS
Method: (§1) A Biacore™-based binding assay was used to compare ligand binding selectivity of the ALK4-Fc:ActRIIB-Fc heterodimeric complex described above with that of ActRIIB-Fc and ALK4-Fc homodimer complexes. The ALK4-Fc:ActRIeB-Fc heterodimer, […], and ALK4-Fc homodimer were independently captured onto the system using an anti-Fc antibody. Ligands were injected and allowed to flow over the captured receptor protein. Results are summarized in Table 13 below, in which ligand off-rates (kd) most indicative of effective polypeptides are denoted in bold.

GDF8 [2] = target: T2, GDF8 (Homo sapiens, UniProt O14793); assay: as above; conditions: ligand GDF8, Table 13
T2 sequence (O14793 267-375): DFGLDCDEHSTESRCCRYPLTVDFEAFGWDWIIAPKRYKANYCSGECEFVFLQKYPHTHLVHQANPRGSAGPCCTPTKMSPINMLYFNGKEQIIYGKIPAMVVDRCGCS
Method: as §1

activin A [3] = target: T3, activin A (Homo sapiens, UniProt P08476); assay: as above; conditions: ligand Activin A, Table 13
T3 sequence (P08476 311-426): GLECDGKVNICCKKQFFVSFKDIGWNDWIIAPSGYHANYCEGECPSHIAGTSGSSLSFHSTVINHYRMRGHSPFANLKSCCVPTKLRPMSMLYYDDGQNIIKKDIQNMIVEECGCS
Method: as §1

activin B [4] = target: T4, activin B (Homo sapiens, UniProt P09529); assay: as above; conditions: ligand Activin B, Table 13
T4 sequence (P09529 293-407): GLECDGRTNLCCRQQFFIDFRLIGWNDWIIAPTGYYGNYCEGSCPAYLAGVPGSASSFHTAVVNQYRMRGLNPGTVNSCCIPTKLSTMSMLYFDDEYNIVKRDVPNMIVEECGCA
Method: as §1

BMP10 = target: T5, BMP10 (Homo sapiens, UniProt O95393); assay: Biacore ligand binding profile, ActRIIA-Fc:ALK4-Fc heterodimer vs homodimers, anti-Fc capture (Example 17, Table 14); conditions: ligand BMP10, Table 14
T5 sequence (O95393 317-424): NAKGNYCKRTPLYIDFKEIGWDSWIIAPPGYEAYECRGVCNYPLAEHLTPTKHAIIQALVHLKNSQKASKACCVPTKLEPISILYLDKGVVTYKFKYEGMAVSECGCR
Method: (§2) A Biacore™-based binding assay was used to compare ligand binding selectivity of the ActRIIA-Fc:ALK4-Fc heterodimeric complex described above with that of ActRIIA-Fc and ALK4-Fc homodimeric complexes. The ActRIIA-Fc:ALK4-Fc heterodimer, ActRIIA-Fc homodimer, and ALK4-Fc homodimer were independently captured onto the system using an anti-Fc antibody. Ligands were injected and allowed to flow over the captured receptor protein. Results are summarized in Table 14 below, in which ligand off-rates (kd) most indicative of effective ligand traps are denoted in bold.

BMP6 = target: T6, BMP6 (Homo sapiens, UniProt P22004); assay: as above; conditions: ligand BMP6, Table 14
T6 sequence (P22004 375-513): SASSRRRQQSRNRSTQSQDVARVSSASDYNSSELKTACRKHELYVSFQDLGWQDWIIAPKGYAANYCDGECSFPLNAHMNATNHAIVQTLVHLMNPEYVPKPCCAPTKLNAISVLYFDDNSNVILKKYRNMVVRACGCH
Method: as §2

BMP7 = target: T7, BMP7 (Homo sapiens, UniProt P18075); assay: as above; conditions: ligand BMP7, Table 14
T7 sequence (P18075 293-431): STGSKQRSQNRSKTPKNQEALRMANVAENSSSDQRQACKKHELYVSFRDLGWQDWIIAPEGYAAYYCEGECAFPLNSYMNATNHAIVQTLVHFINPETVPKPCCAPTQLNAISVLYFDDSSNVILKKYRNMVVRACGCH
Method: as §2

GDF11 [5] = target: T1, GDF11; assay: as above; conditions: ligand GDF11, Table 14
Method: as §2

GDF8 [6] = target: T2, GDF8; assay: as above; conditions: ligand GDF8, Table 14
Method: as §2

activin A [7] = target: T3, activin A; assay: as above; conditions: ligand Activin A, Table 14
Method: as §2

activin AB = target: T8, activin AB (Homo sapiens, UniProt P08476+P09529); assay: as above; conditions: ligand Activin AB, Table 14
T8 sequence (P08476 311-426): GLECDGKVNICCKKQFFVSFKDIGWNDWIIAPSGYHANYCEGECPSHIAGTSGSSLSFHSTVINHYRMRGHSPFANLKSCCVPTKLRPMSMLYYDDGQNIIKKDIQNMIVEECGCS
T8 sequence (P09529 293-407): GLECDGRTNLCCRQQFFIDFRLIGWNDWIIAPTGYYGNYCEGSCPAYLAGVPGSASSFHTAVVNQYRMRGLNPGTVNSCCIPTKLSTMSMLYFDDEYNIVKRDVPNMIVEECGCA
Method: as §2

activin AC = target: T9, activin AC (Homo sapiens, UniProt P08476+P55103); assay: as above; conditions: ligand Activin AC, Table 14
T9 sequence (P08476 311-426): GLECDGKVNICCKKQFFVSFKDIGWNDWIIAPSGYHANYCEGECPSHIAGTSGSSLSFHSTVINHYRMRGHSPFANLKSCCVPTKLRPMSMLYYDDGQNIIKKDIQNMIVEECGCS
T9 sequence (P55103 237-352): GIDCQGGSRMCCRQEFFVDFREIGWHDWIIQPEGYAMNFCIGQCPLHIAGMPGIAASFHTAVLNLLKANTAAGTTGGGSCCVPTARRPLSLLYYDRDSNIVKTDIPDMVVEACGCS
Method: as §2

activin B [8] = target: T4, activin B; assay: as above; conditions: ligand Activin B, Table 14
Method: as §2

B1: ALK4-Fc homodimer: ALK4-Fc homodimer complex used as comparator in Examples 13 and 17 (protein)
chain: SGPRGVQALLCACTSCLQANYTCETDGACMVSIFNLDGMEHHVRTCIPKVELVPAGKPFYCLSSEDLRNTHCCYTDYCNRIDLRVPSGHLKEPEHPSMWGPVE
modifications: left off: a dimerising Fc or GST
A Kd (GDF11 [1]) of 0.27 nM, a ka (GDF11 [1]) of 5e+06 M⁻¹ s⁻¹ and a kd (GDF11 [1]) of 0.0048 s⁻¹ were found for B1 in this work. For the same molecule, the Kd (GDF8 [2]) was 15 nM, the ka (GDF8 [2]) was 130000 M⁻¹ s⁻¹ and the kd (GDF8 [2]) was 0.0019 s⁻¹. For the same molecule, the ka (activin A [3]) was 580000 M⁻¹ s⁻¹, the kd (activin A [3]) was 0.012 s⁻¹ and the KD (activin B [4]) was “No binding”. The KD (BMP10) was “No binding”, the KD (BMP6) was “No binding” and the KD (BMP7) was “No binding”. It also gave a ka (GDF11 [5]) of 5e+06 M⁻¹ s⁻¹, a kd (GDF11 [5]) of 0.0048 s⁻¹ and a Kd (GDF8 [6]) of 15 nM. The ka (GDF8 [6]) was 130000 M⁻¹ s⁻¹, the kd (GDF8 [6]) was 0.0019 s⁻¹ and the ka (activin A [7]) was 580000 M⁻¹ s⁻¹. It also gave a kd (activin A [7]) of 0.012 s⁻¹, a ka (activin AB) of 1.8e+06 M⁻¹ s⁻¹ and a kd (activin AB) of 0.0036 s⁻¹. The KD (activin AC) was “No binding” and the KD (activin B [8]) was “No binding”.
